In paper PMC8578170, “Electron carriers involved in autotrophic and heterotrophic acetogenesis in the thermophilic bacterium Thermoanaerobacter kivui” (Extremophiles, 2021):

Tests used:
[1] = target: T1, His-MetFV (Thermoanaerobacter kivui, UniProt A0A097ATJ3); experiment: thin-layer chromatography of flavin released from purified complex; type: binding; conditions: 10 µM FMN in purification buffers unless otherwise specified
T1 construct: gene metF; with Methylenetetrahydrofolate reductase subunit MetV
T1 sequence (A0A097ATJ3 1-291): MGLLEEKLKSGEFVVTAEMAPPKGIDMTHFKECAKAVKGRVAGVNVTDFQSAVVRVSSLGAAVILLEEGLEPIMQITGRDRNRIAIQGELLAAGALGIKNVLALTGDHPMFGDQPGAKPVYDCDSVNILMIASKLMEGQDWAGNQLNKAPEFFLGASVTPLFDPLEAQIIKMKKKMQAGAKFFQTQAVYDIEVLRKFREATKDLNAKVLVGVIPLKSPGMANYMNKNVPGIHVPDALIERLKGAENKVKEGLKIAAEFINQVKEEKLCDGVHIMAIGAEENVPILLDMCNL
T1 sequence (A0A097ATJ4 1-216 partner): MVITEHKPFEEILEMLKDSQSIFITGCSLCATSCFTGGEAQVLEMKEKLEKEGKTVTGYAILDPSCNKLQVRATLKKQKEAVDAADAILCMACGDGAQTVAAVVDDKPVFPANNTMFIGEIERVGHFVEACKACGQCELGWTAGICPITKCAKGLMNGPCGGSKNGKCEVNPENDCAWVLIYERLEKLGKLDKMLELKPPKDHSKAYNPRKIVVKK

[2] = target: T1, His-MetFV; experiment: spectrophotometric methyl-THF:benzyl viologen oxidoreductase assay, […] nm; type: biochemical; conditions: 1 mM methyl-THF, 10 mM benzyl viologen; 50 mM KPi, 20 mM ascorbate, pH 7, 66 °C
[3] = target: T1, His-MetFV; experiment: spectrophotometric reduced methyl viologen:methylene-THF oxidoreductase assay, […] nm; type: biochemical; conditions: methylene-THF formed from 0.5 mM THF and 1.5 mM formaldehyde; 10 mM methyl viologen, dithionite; 50 mM KPi, 20 mM ascorbate, pH 7, 66 °C
[4] = target: His-HydABC, electron-bifurcating hydrogenase complex of T. kivui (Thermoanaerobacter kivui); experiment: SEC; analytical size exclusion chromatography on a calibrated Superdex 200 column with size standards; buffer B (50 mM Tris/HCl, 150 mM NaCl, 20 mM MgSO4, 2 mM DTE, 20% glycerol, pH 7.5)
[5] = target: the molecule itself; experiment: as above
[6] = target: His-HydABC, electron-bifurcating hydrogenase complex of T. kivui (Thermoanaerobacter kivui)
[7] = substrate: NC(=O)c1ccc[n+]([C@@H]2O[C@H](COP(=O)(O)OP(=O)(O)OC[C@H]3O[C@@H](n4cnc5c(N)ncnc54)[C@H](OP(=O)(O)O)[C@@H]3O)[C@@H](O)[C@H]2O)c1; experiment: purified protein; conditions: H2 and C. pasteurianum ferredoxin as co-substrates, 5 µM FMN, 50 mM EPPS, 10 mM NaCl, pH 8, 66 °C
[8] = substrate: Cc1cc2nc3c(=O)[nH]c(=O)nc-3n(C[C@H](O)[C@H](O)[C@H](O)COP(=O)(O)O)c2cc1C; experiment: spectrophotometric H2:Fd/NADP+ oxidoreductase assay; type: biochemical, Thermoanaerobacter kivui; conditions: H2, ferredoxin and NADP+ as co-substrates, pH 8, 66 °C, FMN stimulation of activity, error exceeds the value, varied: cofactor

## Cc1cc2nc3c(=O)[nH]c(=O)nc-3n(C[C@H](O)[C@H](O)[C@H](O)COP(=O)(O)O)c2cc1C [FMN]
[1]
  thin-layer chromatography of flavin released from purified complex: subsequent separation of the flavin-containing supernatant by thin-layer chromatography (TLC), FMN could be detected

## CN1c2c(nc(N)[nH]c2=O)NC[C@@H]1CNc1ccc(C(=O)N[C@@H](CCC(=O)O)C(=O)O)cc1 [methyl-THF]
[2]
  spectrophotometric methyl-THF:benzyl viologen oxidoreductase assay, 600 nm: oxidation of methyl-THF was not coupled to NAD^+, NADP^+ or Fd reduction

## Nc1nc2c(c(=O)[nH]1)N1CN(c3ccc(C(=O)N[C@@H](CCC(=O)O)C(=O)O)cc3)C[C@H]1CN2 [methylene-THF]
[3]
  spectrophotometric reduced methyl viologen:methylene-THF oxidoreductase assay, 6: The purified MetFV complex catalyzed the reduction of methylene-THF with reduced MV

## His-HydABC, electron-bifurcating hydrogenase complex of T. kivui (from UniProt A0A097ATG4 1-630; A0A097ATI0 1-170)
[4]
  stoichiometry N: 2

B1: His-MetFV, methylene-THF reductase complex of T. kivui (complex, Thermoanaerobacter kivui)
chain 1: MGLLEEKLKSGEFVVTAEMAPPKGIDMTHFKECAKAVKGRVAGVNVTDFQSAVVRVSSLGAAVILLEEGLEPIMQITGRDRNRIAIQGELLAAGALGIKNVLALTGDHPMFGDQPGAKPVYDCDSVNILMIASKLMEGQDWAGNQLNKAPEFFLGASVTPLFDPLEAQIIKMKKKMQAGAKFFQTQAVYDIEVLRKFREATKDLNAKVLVGVIPLKSPGMANYMNKNVPGIHVPDALIERLKGAENKVKEGLKIAAEFINQVKEEKLCDGVHIMAIGAEENVPILLDMCNL
chain 2: MVITEHKPFEEILEMLKDSQSIFITGCSLCATSCFTGGEAQVLEMKEKLEKEGKTVTGYAILDPSCNKLQVRATLKKQKEAVDAADAILCMACGDGAQTVAAVVDDKPVFPANNTMFIGEIERVGHFVEACKACGQCELGWTAGICPITKCAKGLMNGPCGGSKNGKCEVNPENDCAWVLIYERLEKLGKLDKMLELKPPKDHSKAYNPRKIVVKK
notes: One MetFV heterodimer; By analytical SEC the purified complex (174 kDa) is consistent with three MetFV heterodimers; It contains iron-sulfur clusters and FMN; also called MTHFR; MetFV heterodimer; source: T. kivui (DSM 2030), plasmid pMU131_His-metFV, produced homologously, purified (Ni2+-NTA, Superdex 200)
[5]
  stoichiometry N: 3

B2: ferredoxin isolated from Clostridium pasteurianum (natural protein)
chain: MAYKIADSCVSCGACASECPVNAISQGDSIFVIDADTCIDCGNCANVCPVGAPVQE
[6]
  Km for Fd in the NADP+-dependent H2:Fd oxidoreductase assay (Fd 0–200 µM, 66 °C): 13.6 µM

B3: His-HydABC (Thermoanaerobacter kivui) (protein)
chain: MVKLKSIQELENLREKIKEAKKKEKIVIRICGGTGCRASGSLAVRDELVKVLKREGFANVDVNLSSDCLENTSEVHVKMTGCQGFCAQGPLMTIEPLGVFYVGVKPEDVEEIVEKSIKKNEIIERLLYHDPATGKTYVKRDENPFYAKQTRLVLKHCGTVDPASVYDYIAEGGYSAIAKALTMDRKQIIDEVIKSGLRGRGGAGFPTGEKWLGAYKNQSPKKYIICNGDEGDPGAFMDRSVMEGDPHKVIEGMMIGAYAIGSDEGYIYVRAEYPLAVQMLRKAIEECEKLGLLGDNILGTGFSFRLHVREGAGAFVCGESTALTYSIEGKRGMPRVRPPRTNECGLWEMPTVLNNVETFACIPEIILNGGEWFASIGTPTSTGTKIFALSGKVNRTGLVEVPMGLKLRELIFDIGGGIANNKKFKAVQLGGPSGGCVPESQLDLPIDFDSLSKAGAIMGSGGVVVVDEDTCMVDFAKFFTNFIVEESCGKCIPCREGNKKMLEILERITEGKGKEGDIELLEELGDVIISASLCGLGKTAPNPVLSTIKHFRDEYEAHIRDKKCPAGACQALAAYKIDPGKCIGCGKCVKVCPVGAISGEKKKPHVIDQSKCIKCGACAENCPKGAIYKG
notes: HydABC complex, 10xHis tag at 3' end of hydA, plasmid pMU131, produced homologously in T. kivui; Ni-NTA and Superdex 200; 348 kDa, dimer of HydABC (HydA 64, HydB 68, HydC 18 kDa); with Electron-bifurcating [FeFe] hydrogenase subunit HydA; Electron-bifurcating hydrogenase subunit HydC
[7]
  Km: 48.8 ± 10.6 µM
[8]
  Km: 0.3 ± 0.8 µM
